Data taken from the DeepSol protein solubility set.

Test: soluble on expression in E. coli; label from the status in PepcDB or PDB records

Sequence: MSKEIAKKRIEELRDLLNTFNYQYHVLDNPSVSDAEYDRNMQELIKLEAENPEFMSEDSPSIRVGGTVLDIFEKVTHKSPMLSLGNAFNEGDLRDFDRRVRQGIDDANVRYICELKIDGLAVSLHYEKGRFIQGATRGDGVTGEDITQNLKTIKAIPLRLNEEVTLEARGEAYMPKRSFVKLNEEKEQNGEDVFANPRNAAAGSIRQLDPKIAAKRNLSMFVYGLANVEEKTIPSHSESLDYLGELGFKTNPNRRTCETIEEVIAYVEEWQEKRPHLDYEIDGIVIKVDDVALQESLGTTAKSPRWAIAYKFPAEEVVTRLTGIELSVGRTGVVTPTAELEPVRVAGTIVRRASLHNEDLIREKDIRIGDYVVVKKAGDIIPEVVNVIFDKRTGGEEEYHMPTHCPACESELVRLEEEVALRCINPTCPAQIREGLIHFVSRNAMNIDGLGERVITQLFDADYIRTFADLYSLTKEQLLQLERFGEKSATNLVQAIENSKENSLERLLFGLGIRHVGAKAARTFAEHFETMDALVKATEEELKAINEIGEKMAQSVVAYFDNEDVLELLQQFKEYGVNMTYKGIKIADLQNVESYFAGKTVVLTGKLEVMGRSEAKKKIEALGGKVTGSVSKSTDLVVAGEAAGSKLAQAEKHNVEVWNEERFLQELNK
- soluble on expression in E. coli: soluble

Sequence: MQAYTQTLIHRLDKLNRQRIERALALMDLQSQRVFHLIPALFQFNHPLIPGYFSADTPFGIHLFEANPIQQQFIDDAQLTLGEPLTPADNPAILGLYTMGSTSSIGQSTSSDLDIWVCVSAQMSCEARDNLSSKCLLITDWAKSQGVEANFFIMNEERFRHNHSEALSGENCGSSQHLLLLDEFYRSAVRLAGKRLLWQIVPPEMEECYDEYVHELCSNGYLNCNEWIDFGKLNRIPAEEYFGANLWQLYKSIDSPYKSVLKAILLEAYSWEYPHTQLLSIDSKRRFFADEPDLYGMDSYYQMLEKVTRYLVRIGDSTRLDLVRRCFYLKTHEKLSREPGVGSMPWRREALRELTSEWQWSADLIAELDNRRHWKVEQVKVVHHALLDALMLSYRNLIQFARRNDITSAISPQDISILARKLYAAFEVLPGKVTLLNPQISPDLHEPDLSFIEVCAGRTNKPGWYLYKQPLQAQRLIGQPYLEHNEYLSKLVAWAFFNGLITESTRLHAVVREAQLDIDKFYQMVSDLRNTFSLRKRRPTMQALANPCEISQLAMFINFEHDPTSELSGKALKVDLKNIDIFSFGAEQKCLVGSVDLVYRNSWQEVRTLHFEGQTAMLDALKTVLGKMHQDALPPESVDVFCYSKNLRGVMRNLVYQLLAECIDLRLKPMEQEKRRRFKALRMGDQMYGLFFERRGVSVQKLENSVDFYRSISTNKLKGSPLLMLDRDQDYPLPAVVDSFASEGLVQFFFEDTEKGFNIYVLDEANRVEVYHQFNGEKDEMIASVNSFYTSMLDDSNKLGAKSINFNLPQYYQIIHPEEGETYVVPYRNDSAVYSKPSQVVNA
- soluble on expression in E. coli: not soluble

Sequence: MAHHHHHHMGLVDAYDRAATTEIANESLKDVRPDIVHQCLLALFDSDLAYQHRLRVYMSLFVRQGKVIEVSPALRPPRTYARFRGLMSALLRDGRICSTDGQVLMRLMPGSVAPIIPHGAEVVGLTNSLSSPVVTATQLAQQAVAAPVDDSLQGGIKHVTAFYCISCTDDCNLDGIDYITKSVCLSAYPMTAHVQCARVCEGHTRVEPASSVSGSAAGMGVGGGQAKTDRCSAPEPPKRRGEVFPANQAEDNKL
- soluble on expression in E. coli: not soluble

Sequence: MKTICVFAGSNPGGNEAYKRKAAELGVYMAEQGIGLVYGGSRVGLMGTIADAIMENGGTAIGVMPSGLFSGEVVHQNLTELIEVNGMHERKAKMSELADGFISMPGGFGTYEELFEVLCWAQIGIHQKPIGLYNVNGYFEPMMKMVKYSIQEGFSNESHLKLIHSSSRPDELIEQMQNYSYPILEKKWTEI
- soluble on expression in E. coli: soluble

Sequence: MAHHHHHHMPPKGQRSLNIAQPLSSSRAQSANAILRSAASAMATSGPAASKSSPRTSCFPRAFMSTGNARNEMEAYYEQLLSQDRVDGVDAFGKNGIHLLCKGLGIKPESFEMYTLIWKMGVTRGCCIPRADWLKTIYTYKIEQPMDLKLVLVEWVKESRGDSFTEFYNDLYDYIRGEEARLMPYGTAVEAWAVLFQNEPRIIPWIKWYSDIYRREVTRDVWRQIGIFLSAVPNIEAYNVEDRWSCAIDSYVEWCKVSG
- soluble on expression in E. coli: not soluble

Sequence: MKNWIVGMVALVTMVPVMAATPWQKITHPVAGSPQSIGGFANGCVIGAQPLPLESADYQVMRSDQRRYFGHPDLLNFIHRLSAQTHQQQLGTVLIGDMAMPAGGRFSSGHASHQSGLDVDIWLQLPKQRWSQQQLLKPQPIDLVAVDGKRVIPALWQPQIESLIKLAAKDNDVTRIFVNPAIKKQLCLDAGADRQWLHKVRPWFAHRAHMHVRLRCPANSLECVDQDTPPPGDGCGAELESWFQPPPPSAKPGKTLPPPLPPSCQALLDNHFATE
- soluble on expression in E. coli: not soluble

Sequence: MSLTTNPVKHTDEHIGALYFSDLPGISNLTCTANYIGGKFWTTAHHCVEGRSRFVGFIEQSDGQYAGIEHVYTKSSDYDIALIKVGSGIDAEQFSLTRSRPAVGKMLEVVGFAVVNPFSSRATMEVTNSNTVANYPMSNLYYKDVFSAKPAGSFPYVISGGDSGAAVWSGETMYGIASGSNGSTKNLAANVGPHVSWIEQTMQNNSNSSPYEILQAFRGGLATSYPKYNQIRDLVDSSEGHHHHHH
- soluble on expression in E. coli: not soluble

Sequence: MSLKILLKQAMVYPITSQKFQGDVLVIGEKIAEVKPFIQPTQDMTVIDARALHLLPGFIDVHTHLGLYDEGTGWAGNDANETSEVSTPHIRSLDGIHPLDIAFQDAVQNGITTVHVMPGSQNIIGGTTCVIKTAGTCIDHMIIQEPAGLKIAFGENPKKVHSNGTKESITRMGIMGLLRESFYEAQHYGHEADFRMLPILKALRREIPVRIHAHRADDISSALRFATEFNLDLRIEHCTEGHFIVEELSKHNLKVSVGPTLTRRSKIELKNKTWDTYHILSKSGVEVSITTDHPYTPIQYLNLCAAVAVREGLDEKTALEGITIFPARNLRLEDRIGSIEVGKDADLVLWTHHPFHYLAKPVLTMIDGKIIYKKNKKNEGHHHHHH
- soluble on expression in E. coli: not soluble

Sequence: MMAFAPPKNTDGPKMQTKMSTWTPLNHQLLNDRVFEERRALLGKWFDKWTDSQRRRILTGLLERCSLSQQKFCCRKLQEKIPAEALDFTTKLPRVLSLYIFSFLDPRSLCRCAQVCWHWKNLAELDQLWMLKCLRFNWYINFSPTPFEQGIWKKHYIQMVKELHITKPKTPPKDGFVIADVQLVTSNSPEEKQSPLSAFRSSSSLRKKNNSGEKALPPWRSSDKHPTDIIRFNYLDNRDPMETVQQGRRKRNQMTPDFSRQSHDKKNKLQDRTRLRKAQSMMSRRNPFPLCP
- soluble on expression in E. coli: not soluble

Sequence: MCSSPTTLFLLFALVSTSYALLGVGRTQSVAVSGRVICNGQPASGVKLKLYEKESTFDVLLEEATSDANGQFRLSGSKTEISTIDPKLNIYHKCNYNGLCYKKIGITIPDNYVSSGKTPSKTYDIGTLNLANQYTGQTTDCIN
- soluble on expression in E. coli: not soluble

Sequence: MDLSNRTVLIVGGTSGIGRELARRFAAAGSTVAVGGRSPEALSELAGEGFGTISIDVTDSASVASARDAVLARYPELDTVVTMPGIMLLEDLRDPAHFEAAATTIDTNLVGTIRVIDAFTPHLVRRGAGTFITVTSGIAFLPFPPMPTYAASKAAVHAYSEALRAQLDGTGVSVVELVPPAVATAGQEKVNPHALPLDDFATEVVQLLSEDPTPREILVKAALMHRWAERDGTYDDLVAQRSQALAMLPSREG
- soluble on expression in E. coli: not soluble

Sequence: MDKVLDSALLSSANKRKGILAIGAHPDDIELGCGASLARLAQKGIYIAAVVMTTGNSGTDGIIDRHEESRNALKILGCHQTIHLNFADTRAHLQLNDMISALEDIIKNQIPSDVEIMRVYTMHDADRHQDHLAVYQASMVACRTIPQILGYETPSTWLSFMPQVFESVKEEYFTVKLAALKKHKS
- soluble on expression in E. coli: soluble

Sequence: MKKIAVFADVQNLYYTVRQAYGCHFNYAALWADISKRGEIVHAFAYAIDRGDSKQQQFQQILRNLGFTVRLKPYIQRSDGSAKGEWDVGITIDIMDFAPQVDEVVLASGDGDFDMLLDRVISKHGVEAVAYGVPGLTANSLIRAASRYVPIEGALLLK
- soluble on expression in E. coli: not soluble

Sequence: VGSIQPDFLGSVNSSLRYKNWTLRASMDMRFGGMVAIYGSHYGTAYGYLKSSMNGVDAENGGITYTSIWDGLTYDDGIIPEAIMPGGQTINTPSGTYTIAEGGELYADLVNRGIVDPQHASSWNYWNNSWGRAAVWKNNDWFHELNYIALREVSLSYRMPGKIADKIGASGINLTLTGRNLGYLLNSLPNNFNPESLRGTQAGQFMIRSVSPYTASYTFTINATF
- soluble on expression in E. coli: not soluble

Sequence: PFMFRPRKQVFQTQGAAVSSMAQTLLPNDLASKAMGSAFTALLDANEDAQKAMKIIKTLSSLSDAWENVKETLNNPEFWKQLLSRCVQLIAGMTIAVMHPDPLTLLCLGTLTAAEITSQTSLCEEIAAKFKTIFITPPPRFPTISLFQQQSPLKQVNDIFSLAKNLDWAVKTVEKVVDWFGTWIVQEEKEQTLDQLLQRFPEHAKRISDLRNGMAAYVECKESFDFFEKLYNQAVKEKRTGIAAVCEKFRQKHDHATARCEPVVIVLRGDAGQGKSLSSQVIAQAVSKTIFGRQSVYSLPPDSDFFDGYENQFAAIMDDLGQNPDGSDFTTFCQMVSTTNFLPNMASLERKGTPFTSQLVVATTNLPEFRPVTIAHYPAVERRITFDYSVSAGPVCSKTEAGYKVLDVERAFRPTGEAPLPCFQNNCLFLEKAGLQFRDNRTKEIISLVDVIERAVARIERKKKVLTTVQTLVAQ
- soluble on expression in E. coli: not soluble

Sequence: MGSDKIHHHHHHLKILKFQIKDFRNLKKIEYQPSPGLNIFYGENAQGKTNILEALYYLATGNSFRSNKEKTLISYESSSLQVQARYNHQERIIDSSITYGLDGKVFRINKKRASYNHTDRLRIILFSPDDLYLVKGAPYKRRFFLDFLLGQISNEYLFKLDNYRKILKKRNLLLKKEETNSRSFAIINDIFMDLAAQLLISRLNLINVLDEAIQEIYPQINNDGGQLKIRYALSFPVDSGKINLDILKDSLKKQVESETEKEKKRKTTLLGPHLDDMHIYLNEQMARLFASQGQQRNIVICLKLAEIMTFRKIKGFFPIFLLDEVLAELDDSRSNKLLKYLAQSPFQSFLTSVKLEKFEVMDASIFLVKDGCLLGKE
- soluble on expression in E. coli: not soluble

Sequence: GPVKLRLTVLCAKNLVKKDFFRLPDPFAKVVVDGSGQCHSTDTVKNTLDPKWNQHYDLYIGKSDSVTISVWNHKKIHKKQGAGFLGCVRLLSNAINRLKDTGYQRLDLCKLGPNDNDTVRGQIVVSLQSRD
- soluble on expression in E. coli: soluble

Sequence: MRIEVKLLPLKDNPILPFNYNYEVYSQILEKVNSIEPTIAKLLSSPHGFWTFSRIIVRKRKILPDKGIEILSDDVSLYISSSNEDIIRAIAEAVEKSPEFKIGELSFLVGDIKAIKVKELGKENVFSTLSPIVVRTVKFEGNKLRHWDLYPHDELFMDRLRKVMILRYSEVMGETPKDRDFTIEVLKFKPTRLMVGSSYIRGSLMVFRYAGSEEIARFGYENGFGEKTGLGFGMVKLIE
- soluble on expression in E. coli: soluble

Sequence: MPAPDLGFALSLPPKKAIEWLESKKVTAESYRNLTASEIAKVYTIARMTDLDMLNDIKTSMVESAKSGQSFDDWRKGILNLLSNKGWLHPNGHNGKDIIDPATGEVFGSPRRLETIYRTNMQTAYNAGQYQGYMANIDARPYWMYDAVGDSRTRPAHSAIDGLVYRYDDPFWATFYPPNGYNCRCSVIALSERDVERQGRIVGQSTADNLVETHKIYNKKGDTYLTLAYKAPDGSLYTTDRGFDYNAGRMNYRPDLDKYDRALAHQFAKAEMGGADFKTSFKQLEKEFYEVKQRLDIDGKPDKEQKIKIRNALSRQLKFAAGVLSKETQELAGMTRATVWLSDDTLVKQVDSREGQNFDDSYYAFLPDMLQNPEHVIRDNRELIFTARYKGSALWAVLKYIKEVDEIYLQSYRISNDKEIAKFMAKKKVLK
- soluble on expression in E. coli: not soluble

Sequence: NATLKGLKLSERSTTEIQLLAEQAITVSKQEVKEFTYKVESNKQFEATVKIKADLKIDPTKAMSHIENIFKDDETKKKDAQNSLTMSMGQNEALEATFTYSPATQGIFGRASFDRFTSNIKLNTKLRIQVSSTSDLMKKLLENSLTSSLKDQSFDNEGVNLFPYTLFAL
- soluble on expression in E. coli: not soluble
